For one molecule, fold pull-down signal results are on record in article PMC8473176.

For the experiment, the target named is GST-HC-Pro^K (HC-Pro of turnip mosaic virus, FRNK motif mutated to FKNK) (turnip mosaic virus (TuMV)). Description: pull-down; 2 μg bait (GST-HC-Pro^R or GST-HC-Pro^K) and 2 μg prey (his-AtHEN1) in 50 mM Tris-HCl pH 7.5, 100 mM NaCl, 0.2% glycerol, 0.6% Triton X-100, 0.5 mM β-mercaptoethanol; 25 °C, 2 h; Glutathione Sepharose 4B; blot with α-His or α-GST.

B1: his-AtHEN1 (recombinant full-length Arabidopsis HEN1) (enzyme)
chain: MAGGGKHTPTPKAIIHQKFGAKASYTVEEVHDSSQSGCLGLAIPQKGPCLYRCHLQLPEFSVVSNVFKKKKDSEQSAAELALDKLGIRPQNDDLTVDEARDEIVGRIKYIFSDEFLSAEHPLGAHLRAALRRDGERCGSVPVSVIATVDAKINSRCKIINPSVESDPFLAISYVMKAAAKLADYIVASPHGLRRKNAYPSEIVEALATHVSDSLHSREVAAVYIPCIDEEVVELDTLYISSNRHYLDSIAERLGLKDGNQVMISRMFGKASCGSECRLYSEIPKKYLDNSSDASGTSNEDSSHIVKSRNARASYICGQDIHGDAILASVGYRWKSDDLDYDDVTVNSFYRICCGMSPNGIYKISRQAVIAAQLPFAFTTKSNWRGPLPREILGLFCHQHRLAEPILSSSTAPVKSLSDIFRSHKKLKVSGVDDANENLSRQKEDTPGLGHGFRCEVKIFTKSQDLVLECSPRKFYEKENDAIQNASLKALLWFSKFFADLDVDGEQSCDTDDDQDTKSSSPNVFAAPPILQKEHSSESKNTNVLSAEKRVQSITNGSVVSICYSLSLAVDPEYSSDGESPREDNESNEEMESEYSANCESSVELIESNEEIEFEVGTGSMNPHIESEVTQMTVGEYASFRMTPPDAAEALILAVGSDTVRIRSLLSERPCLNYNILLLGVKGPSEERMEAAFFKPPLSKQRVEYALKHIRESSASTLVDFGCGSGSLLDSLLDYPTSLQTIIGVDISPKGLARAAKMLHVKLNKEACNVKSATLYDGSILEFDSRLHDVDIGTCLEVIEHMEEDQACEFGEKVLSLFHPKLLIVSTPNYEFNTILQRSTPETQEENNSEPQLPKFRNHDHKFEWTREQFNQWASKLGKRHNYSVEFSGVGGSGEVEPGFASQIAIFRREASSVENVAESSMQPYKVIWEWKKEDVEKKKTDL
Regarding B1, the fold pull-down signal was in the range of 0.2 to 0.3 fold.
